From patent US20150301046A1 (published 2015)
Numbering of substitutions follows the chain as printed. Names and notes keep the numbering of the source.

B1: 13B8.2 Fab fragment (Fab, V domains shown)
VH: QVQLKQSGPGLVQPSQSLSITCTVSGFSLTTFGVHWVRQSPGKGLEWLGVIWRSGITDYNVPFMSRLSITKDNSKSQVFFKLNSLQPDDTAIYYCAKNDPGTGFAYWGQGTLVTVSA
VL: DIQMTQSPASLSASVGETVTFTCRASEMIYSYLAWYQQKQGKSPQLLVHDAKTLAEGVPSRFSGGGSGTQFSLKINTLQPEDFGTYYCQHHYGNPPTFGGGTKLEIKR
notes: Chimeric Fab expressed in the periplasm of E. coli; In the staining it was used as a monomer or multimerized on Strep-Tactin PE; also called CD4 wt (13B8.2); 13B8.2 wildtype (wt) Fab fragment
B2: mutant 13B8.2 Fab fragment, CD4 mutant 3 (H35A) (Fab, V domains shown)
VH: B1 VH with H35A
VL: B1 VL
notes: also called Fab mutant 3; H35-H
B3: mutant 13B8.2 Fab fragment, CD4 mutant 2 (Y92A) (Fab, V domains shown)
VH: B1 VH
VL: B1 VL with Y92A
notes: also called Fab mutant 2; Y92-L
B4: mutant 13B8.2 Fab fragment, CD4 mutant 1 (F100A) (Fab, V domains shown)
VH: B1 VH with F104A
VL: B1 VL
notes: also called Fab mutant 1; F100K-H

Key:
[1] = biological target: T1, CD4 (cell surface receptor molecule on PBMCs) (human, UniProt P01730 26-458); test: flow cytometry on PBMCs, Fab multimerized on Strep-Tactin PE
T1 construct: whole, on cells; also called CD4 receptor molecule
Procedure: For staining of a CD4 receptor molecule specific target cell population in a mixture of cells, Strep-Tactin® labeled with phycoerythrine as a fluorescent label (IBA GmbH, Göttingen, Germany) was used as multimerization reagent together with the monomeric CD4 binding Fab-One-STrEP fragment of the variants of the antibody 13B8.2 (that served as receptor binding reagent) as described below. For FACS analysis 5×10⁶ PBMCs were incubated with Fab multimers consisting of 0.2 μg Fab-fragment (comprising binding site B) equipped with the One-STrEP-tag (binding partner C) as receptor binding reagent and 0.75 μg Strep-Tactin® PE (IBA GmbH, Göttingen, Germany) as multimerization reagent using the protocol below. In addition, after FACS separation, the multivalent complexes were disrupted in a portion of each of the stained cells by addition of biotin as described below. […]
For staining and dissociation experiments, 5×10⁶ PBMCs were incubated with the respective anti-CD4 Fab-multimer-Strep-Tactin® PE complexes or with the corresponding Fab-monomers (the latter not complexed with Strep-Tactin® PE). […] As expected from the monomer staining experiments, no remaining Fab monomers could be detected for mutants 2, 3 and 4, whereas substantial residual cell surface bound Fab of the wild-type and mutant 1 variants was observed.

[2] = biological target: T1, CD4 (cell surface receptor molecule on …); test: flow cytometry on PBMCs, Fab multimerized on Strep-Tactin PE (before the Western blot experiment)
Procedure: CD4 Fab-multimers were generated with the different anti-CD4 Fab-mutants listed in Table 1 and further specified in FIG. 2 and Strep-Tactin® PE (IBA GmbH, Göttingen, Germany). PBMCs were incubated with the different CD4 Fab-multimers and consistent cell staining in each sample was verified by flow cytometry (solid line compared to the tinted histogram representing unstained cells). Then, cells were treated with D-biotin and subsequently washed. Finally, washed cells were lysed, and the soluble (S) and insoluble (I) fractions were analyzed for remaining Fab-monomers using highly specific anti-Strep-Tag® antibodies (StrepMAB-Classic Horse Radish Peroxidase (HRP) conjugate; IBA GmbH, Göttingen, Germany). To control application of consistent amounts of insoluble cell material, β-actin was detected simultaneously with a primary antibody against β-actin from rabbit (Santa Cruz Biotechnology Inc., Santa Cruz, USA) and a secondary antibody against rabbit Ig (immunoglobulin) conjugated to HRP (Sigma, St. Louis, USA). […]

Row | Binder | binding result [1] | binding result [2]
1 | B1 | binds | –
2 | B2 | – | binds
3 | B3 | – | binds
4 | B4 | binds | –
